Earlier results as cited in PMC6273919.

Molecular target: NF-kappa-B p50 (Homo sapiens) (UniProt P19838)
Chain of UniProt P19838 (P19838 1-433): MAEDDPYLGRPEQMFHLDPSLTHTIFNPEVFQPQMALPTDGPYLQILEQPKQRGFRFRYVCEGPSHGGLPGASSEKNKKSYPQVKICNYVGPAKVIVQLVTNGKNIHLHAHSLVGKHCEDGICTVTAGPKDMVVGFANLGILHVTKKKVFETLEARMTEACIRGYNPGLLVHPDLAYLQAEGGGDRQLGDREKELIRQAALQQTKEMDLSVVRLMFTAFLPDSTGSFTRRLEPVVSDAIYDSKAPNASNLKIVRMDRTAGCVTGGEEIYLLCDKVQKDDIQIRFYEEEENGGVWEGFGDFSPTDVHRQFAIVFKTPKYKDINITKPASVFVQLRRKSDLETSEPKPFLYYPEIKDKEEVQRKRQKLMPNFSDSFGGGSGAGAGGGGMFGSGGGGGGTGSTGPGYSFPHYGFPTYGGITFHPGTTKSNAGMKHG

**Q.** With Melittin (from UniProt P01501) as the substance, how does the Kd read?
**A.** 12 nM
